Test results as given in PMC3498381, “Isolated Toll-like Receptor Transmembrane Domains Are Capable of Oligomerization” (PLoS ONE, 2012).
No end group written: not given here.

Legend:
[1] = Circular dichroism, helical content by CDNN; format: physicochemical; conditions: CD, CDNN analysis; 5-10 µM peptide, 10 mM C14-betaine micelles, 20 mM HEPES pH 7.4, 25°C, average of 9 scans
Method: Figure 4 Circular Dichroism Spectra of TLR1, TLR2, and TLR6 Synthetic TMD Peptides. Far-UV spectra of the synthetic TMD peptides at concentrations ranging from 5–10 µM in the presence of 10 mM C14-betaine detergent micelles. Spectra were collected at 25°C with a step size of 1 nm and are the average of 9 scans. All peptides had helical content >99% (Table S11) as determined using CDNN [63].
CD measurements were performed on a ChirascanPlus spectrometer (Applied Photophysics) using a 1.0 mm path length quartz cuvette. Peptides and C14-Betaine (3-(N,N-Dimethylmyristylammonio)propanesulfonate: Sigma) were co-dissolved in 2,2,2-trifluoroethanol. The organic solvent was removed by drying to a thin film using N2 and further dried overnight under reduced pressure to remove all traces of TFE. Samples were resusupended in a 20 mM HEPES buffer, pH 7.4, yielding a final C14-Betaine concentration of 10 mM. Peptide concentrations were determined using Beer-Lambert law with coumarin absorbance at 400 nm using ε400 of 39,300 M^−1 cm^−1 [62] and FITC absorbance at 495 nm using ε495 of 68,000 M^−1 cm^−1 (Invitrogen). Peptides were prepared such that final concentrations were in the 5–10 µM range. All CD spectra were measured at 25°C with a step size of 1 nm and are reported as the average of 9 scans. Data were not collected below 200 nm due to the high voltage and background noise from the C14-Betaine buffer. Helical content was determined using CDNN [63].

[2] = system: homotypic interaction of the same TMD peptide; assay: Fluorescence self-quenching assay in C14-betaine micelles; format: binding, human; conditions: from molar fraction Kd compared with known ranges of TMD interactions
Description: An apparent dissociation constant (Kd) can be determined from self-quenching interactions by varying the amount of detergent present for a fixed peptide concentration. At low detergent:peptide ratios, the TMD peptides are driven to interact; however, gradually increasing the amount of detergent present at a fixed peptide concentration will cause the TMD interactions to dissociate. Then, at some critical detergent:peptide ratio, the interaction is completely dissociated and the fluorescence plateaus. […] Fitting the data results in apparent dissociation constants, Kd, in terms of a dimensionless detergent:peptide ratio (molar fraction) as this ratio, instead of the bulk concentration, is more relevant to TMD peptide association. For TLR1 the Kd was determined to be 645.63±49.08, for TLR6 the Kd was determined to be 883.57±86.92 and for TLR2 the Kd was determined to be 4475.5±637.9. […]
Figure 5 TLR1, TLR2, and TLR6 Homotypic Interactions by Fluorescence Self-Quenching. […] Homotypic interaction affinity was studied by changes of fluorescence intensity at different molar ratios of detergent to peptide. […] Increasing detergent competes off the TMD-TMD interactions and leads to an increase in fluorescence signal. […] Kd were determined using the Hill Equation.
Fluorescence self-quenching was used to directly probe the homotypic interactions of the synthetic peptides. […] Peptide concentrations of these samples were determined by UV-VIS and adjusted with the corresponding C14-Betaine only buffers such that all peptide concentrations were 1 µM. […] Samples were allowed to equilibrate in the 96-well plate at room temperature for 2 h before measurement using a Beckman-Coulter DTX 880 Multimode Detector plate reader. […] Each data point is blank corrected for the corresponding C14-Betaine only signal and are the average of 3 different readings. To scale the data from 0 to 1, the initial data point was averaged and set to be zero by subtracting from all further readings, and the data points that are in the plateau region were averaged and then all values were divided by this average to get a maximum of 1. […]

TLR2*: TLR2 TMD chimera with nonfunctional ToxR* domain (negative phenotype) (GNRASALVSGMCCALFLLILLTGVLCGSLIN; cysteine pairing not given here; also: fused to non-functional ToxR* (S87H) and maltose binding protein, ends not given here)
Helix content, 200-260 nm [1]: 99.80% | Helix content, 205-260 nm [1]: 99.90% | Helix content, 210-260 nm [1]: 99.90% | Classification of homotypic interaction strength [2]: moderately strong

TLR1*: TLR1 TMD chimera with nonfunctional ToxR* domain (negative phenotype) (GNRASITLLIVTIVATMLVLAVTVTSLCSYLGSLIN; also: fused to non-functional ToxR* (S87H) and maltose binding protein, ends not given here)
Helix content, 200-260 nm [1]: 99.70% | Helix content, 205-260 nm [1]: 99.90% | Helix content, 210-260 nm [1]: 99.90% | Classification of homotypic interaction strength [2]: weak

TLR6*: TLR6 TMD chimera with nonfunctional ToxR* domain (negative phenotype) (GNRASITLLIVTIGATMLVLAVTVTSLCIYLGSLIN; also: fused to non-functional ToxR* (S87H) and maltose binding protein, ends not given here)
Helix content, 200-260 nm [1]: 99.90% | Helix content, 205-260 nm [1]: 100.00% | Helix content, 210-260 nm [1]: 100.00% | Classification of homotypic interaction strength [2]: weak
